From paper PMC5290278 (Nature Communications, 2017)

Biological target: T1, GST-NPHP4-C2^650-839 (human, UniProt O75161 650-839)
T1 construct: central C2 domain of NPHP4, residues 650-839; also called GST-N4-C2^2650-839 (as printed in the legend); GST fused to the central C2 domain of NPHP4; source: bacterially purified
T1 sequence (looked up): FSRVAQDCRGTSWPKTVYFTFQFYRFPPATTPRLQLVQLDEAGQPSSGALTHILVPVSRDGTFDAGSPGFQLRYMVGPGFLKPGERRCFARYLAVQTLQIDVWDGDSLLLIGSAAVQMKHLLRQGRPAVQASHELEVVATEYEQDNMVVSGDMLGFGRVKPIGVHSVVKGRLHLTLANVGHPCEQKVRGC
Experiment: pull-down; GFP-KIF13B-C2^861-1,000 held on anti-GFP immunocomplexes, washed two times in high salt buffer (600 mM NaCl, 10 mM Tris-HCl, 0.1% NP-40); bacterially purified GST-NPHP4-C2^650-839 (500 ng/µl) added in modified EBC buffer (140 mM NaCl, 10 mM Tris-HCl, 5 mM EDTA, 0.5% NP-40); standard GFP IP
Conditions: both partners purified

B1: GFP-KIF13B-C2^861-1,000 (domain or fragment, human, UniProt Q9NQT8 861-1000, looked up)
chain: KETQENKLVCMVKILQATGLPQHLSHFVFCKYSFWDQQEPVIVAPEVDTSSSSVSKEPHCMVVFDHCNEFSVNITEDFIEHLSEGALAIEVYGHKINDPRKNPALWDLGIIQAKTRSLRDRWSEVTRKLEFWVQILEQNE
notes: made by PCR from the GFP-KIF13B plasmid and cloned into pEGFP-C1; also called KIF13B RPGRIP1N-C2 type domain; source: HEK293T, transfected, in lysate; also immunoisolated on anti-GFP beads with high salt washes
  binding result: binds
